In patent US7163815B2, “Methods and compositions for NAD(P)(H) oxidases” (Georgia Tech Research Corporation, priority 2002, dated 2007):
Substitutions are numbered along the chain they refer to. Names may count otherwise. “Also recorded” adds a separate entry of the source.

How the values were obtained:
[1] = target: Borrelia burgdorferi NADH oxidase BNOX (BNOXK6; SEQ ID NOs 8, 10 and 12) (Borreliella burgdorferi, UniProt O51670, E220G/N174S); test: Kinetics of cofactor substrates, BNOX (change of absorbance at 340 nm); type: biochemical; conditions: pH 7.0, 30° C., comparable degree of purity to SFNOX
Protocol: (§1) The kinetic analysis was performed on ammonium sulfate fractions from both the sfnox and bnox strains in 50 mM HEPES buffer pH 7.0 at 30° C. The initial enzyme fractions were diluted in 25 mM HEPES pH 7.0 at 30° C.+25% glycerol+5 mM DTT to approximately −0.05 A340 nm/min and retained on ice during analysis. Conversion of NAD(P)H was followed by change of absorbance at 340 nm in a Jasco V-530 spectrophotometer. 3 mL methylacrylate disposable cuvettes were used for all experiments and all runs were performed in triplicate at 30° C. Reactions with NADH were started by adding 3 μL of enzyme preparation, 9 μL for NADPH, to the cuvette and mixing by inversion with parafilm three times. Varying concentrations of NAD(P)H substrate were made my preparing 100 mL of a 300 μM solution in a volumetric flask. Dilutions of this solution were then made to provide the differing substrate concentrations for the kinetic profile.
(§2) Investigation of kinetic parameters with NADH and NADPH cofactors as substrates was performed with the supernatant of the 45% ammonium sulfate cut (40% for BNOXK6) in air-saturated solution at 30° C. and pH 7.0 in 0.1 M HEPES buffer. […] Chi values and error bars reveal high accuracy with <10% error in most cases.

[2] = tested on: NC(=O)C1=CN([C@@H]2O[C@H](COP(=O)(O)OP(=O)(O)OC[C@H]3O[C@@H](n4cnc5c(N)ncnc54)[C@H](O)[C@@H]3O)[C@@H](O)[C@H]2O)C=CC1; test: as above; type: biochemical, Borrelia burgdorferi; conditions: other: BNOX, pH 7.0, 30° C., HEPES buffer, air-saturated solution, 40% ammonium sulfate cut for BNOXK6
Protocol: as §1, §2

[3] = tested on: L. brevis (R)-ADH, G37D mutant; conditions: in comparison with the wildtype for NADP^+; cited from earlier work
[4] = Nox activity assay (NADH oxidation at 340 nm); type: biochemical; conditions: overexpressed in E. coli
Protocol: Nox activity assay: Cell-free extracts of the recombinant sfnox and bnox E. coli strains were prepared using ultrasonication described above in 0.1 M TEA pH 7.5+5 mM DTT or β-mercaptoethanol. Nox activities were assayed at 30° C. in a total volume of 1 mL at 340 nm using the following conditions: in 0.1 M TEA pH 7.5 a final concentration of 0.2 mM NADH was dissolved and 10 μl enzyme solution was added. Enzyme reaction was followed for 1 min, activity was calculated using an extinction coefficient ε of NADH of […].

[5] = Activity-pH profile; type: biochemical
Protocol: With the supernatant of the 45% ammonium sulfate cut, an activity—pH profile was measured for SFNOX (FIG. 4). The pH optimum of activity was found at pH 5.2. Below pH 5, activity decreased markedly and reached zero at pH 4.5. Rates at pH 4.5 to 5.2 are reported as net rates, with the chemical decomposition rate at low pH subtracted. […] The sharp activity decline between pH 5.2 and 6.0 coincides with the enzyme's pI, calculated to be pH 5.4.
The pH profile was performed on ammonium sulfate fractions from the sfnoxK2. 100 mM buffer solutions at 30° C. and 200 μM NADH were used for activity analysis as monitored by absorbance at 340 nm. All samples were tested in triplicate in 3 mL methylacrylate disposable cuvettes. The following buffers were utilized within the buffering range of 1 pH unit from their pKa: acetate, N-methylpiperazine, MES (2-[N-morpholino]ethanesulfonic acid hydrate), and bis-tris-propane. Sodium hydroxide or hydrochloric acid were used in preparation of the respective buffers.

[6] = Kinetics of cofactor substrates, NADPH; type: biochemical; conditions: pH 7.0, 30° C.
Protocol: as §1, §2

[7] = Hydrogen peroxide assay (Amplex Red / resorufin fluorescence); type: biochemical; conditions: upon conversion of 300 μM NADH
Protocol: With its detection limit of 100 nM, the test based on 9-acetyl-resorufin (“Amplex Red”) is much more sensitive than the other assays mentioned. Horseradish peroxidase (HRP)-catalyzed oxidation of 9-acetyl resorufin (“Amplex Red”) to fluorescent resorufin was the assay. Amplex Red reacts with H2O2 according to a strict 1:1 stoichiometry. The resorufin assay (λmax: 587 nm (emission), ε=54,000 L(mol-cm)^−1) with its extremely low detection limit of 100 nM resorufin product is much more sensitive than other assays, such as ABTS or o-dianisidine..
For the sensitive assay of putative hydrogen peroxide formation during the reaction of NADH oxidase the horseradish peroxidase-catalyzed oxidation of 9-acetyl resorufin was employed. The Amplex Red hydrogen peroxide assay kit (A-22188) from molecular probes was utilized for these assays. Following the protocols outlined in the kit instructions, a standard curve of H2O2 was prepared in the reaction buffer (50 mM sodium phosphate buffer pH 7.4) from the peroxide stock. The prepared concentrations were 20, 10, 5, and 2.5 μM H2O2 and 0 as a control. A working solution of 100 μM Amplex Red reagent and 0.2 U/ml horseradish peroxidase (HRP) was prepared in the reaction buffer as per kit instructions. As NADH and other reducing reagents are known to interfere with the amplex red assay, the NADH oxidase enzymes were allowed to react with the substrate immediately prior to the Amplex Red analysis. Reaction buffer from the kit was utilized in running enzyme test with 300 μM NADH as well as the controls without NADH. The enzyme conversions were performed by adding 3 μl of enzyme prep to 3 ml of reaction buffer with 300 μM NADH, mixing, and following the conversion until completion by absorbance at 340 nm. 50 μl of the final reaction mixture and standard curve solutions were added to each well in a 96 well fluorescence plate (costar, black, pp). Five replicates were made per sample and standard curve point. […] Fluorescence readings were performed in a BMG FLUOstar Galaxy micro plate reader with 544ex/590em filter settings.

In the case of `NC(=O)C1=CN([C@@H]2O[C@H](COP(=O)(O)OP(=O)(O)OC[C@H]3O[C@@H](n4cnc5c(N)ncnc54)[C@H](O)[C@@H]3O)[C@@H](O)[C@H]2O)C=CC1` [NADH], the vmax [1] is reported as 2.03 U/mg.

With “Borrelia burgdorferi NADH oxidase BNOX (BNOXK6; SEQ ID NOs 8, 10 and 12) (Borreliella burgdorferi B31; E220G/N174S)” the Km [2] was 22.0 µM.

For `NC(=O)c1ccc[n+]([C@@H]2O[C@H](COP(=O)([O-])OP(=O)(O)OC[C@H]3O[C@@H](n4cnc5c(N)ncnc54)[C@H](O)[C@@H]3O)[C@@H](O)[C@H]2O)c1` [NAD^+], the “KM-value for NAD^+” value [3] is listed as “very high”.

B1: SFNOXK2: sequenced SFNOX clone with alanine to valine change at position 30 (A30V), SEQ ID 4 (protein)
chain: MKVIVVGCTHAGTFAVKQTIADHPDADVTVYEMNDNISFLSCGIALYLGKEIKNNDPRGLFYSSPEELSNLGANVQMRHQVTNVDPETKTIKVKDLITNEEKTEAYDKLIMTTGSKPTVPPIPGIDSSRVYLCKNYNDAKKLFEEAPKAKTITIIGSGYIGAELAEAYSNQNYNVNLIDGHERVLYKYFDKEFTDILAKDYEAHGVNLVLGSKVAAFEEVDDEIITKTLDGKEIKSDIAILCIGFRPNTELLKGKVAMLDNGAIITDEYMHSSNRDIFAAGDSAAVHYNPTNSNAYIPLATNAVRQGRLVGLNLTEDKVKDMGTQSSSGLKLYGRTYVSTGINTALAKANNLKVSEVIIADNYRPEFMLSTDEVLMSLVYDPKTRVILGGALSSMHDVSQSANVLSVCIQNKNTIDDLAMVDMLFQPQFDRPFNYLNILGQAAQAQADKAHK
With B1 the “activity of the overexpressed constructs” value [4] was “comparable activity”.

B2: SFNOX: NAD(P)H oxidase isolated from Lactobacillus sanfranciscensis, SEQ ID NO 2; oxidizes NADH and NADPH, reduces oxygen to water (protein)
chain: B1 chain with V30A
With B2 the “pH of the minimum of the bimodal activity-pH curve” value ([5]; 200 μM NADH, 30° C.) was about 5.5, the “pH optimum of activity” value ([5]; 200 μM NADH, 30° C., supernatant of 45% ammonium sulfate cut) was 5.2 and the “activity at pH 4.5” value ([5]; pH 4.5, net rate) was “zero”. The “activity at pH 5.5” value ([5]; pH 5.5) was “instantaneously lose activity”, the “acceptance of NADPH as a substrate” value [6] was “accept NADPH as a substrate with good reactivity” and the “activity with NADPH relative to activity towards NADH” value ([6]; ratio of vmax) was “about 30%”. The H2O2 yield [7] was 0.2% and the “resorufin above background (equal concentration of H2O2 formed)” value [7] was 0.6 µM.

B3: SFNOXK6: sequenced SFNOX clone with A30V and lysine to arginine at position 102 (K102R), SEQ ID NO 6 (protein)
chain: B1 chain with K102R, E250G
With B3 the “activity of the overexpressed constructs” value [4] was “comparable activity”.

B4: BNOX: NADH oxidase from Borrelia burgdorferi, SEQ ID NO 8; reacts with NADH only (protein)
chain: MMKIIIIGGTSAGTSAAAKANRLNKKLDITIYEKTNIVSFGTCGLPYFVGGFFDNPNTMISRTQEEFEKTGISVKTNHEVIKVDAKNNTIVIKNQKTGTIFNNTYDQLMIATGAKPIIPPINNINLENFHTLKNLEDGQKIKKLMDREEIKNIVIIGGGYIGIEMVEAAKNKRKNVRLIQLDKHILIDSFDEEIVTIMEEELTKKGVNLHTNEFVKSLIGEKKAEGVVTNKNTYQADAVILATGIKPDTEFLENQLKTTKNGAIIVNEYGETSIKNIFSAGDCATIYNIVSKKNEYIPLATTANKLGRIVGENLAGNHTAFKGTLGSASIKILSLEAARTGLTEKDAKKLQIKYKTIFVKDKNHTNYYPGQEDLYIKLIYEENTKIILGAQAIGKNGAVIRIHALSIAIYSKLTTKELGMMDFSYSPPFSRTWDILNIAGNAAK
In the case of B4, the “acceptance of NADPH as a substrate” value [6] is reported as “does not accept NADPH as a substrate; also recorded: only accepts NADH” and the “resorufin above background (equal concentration of H2O2 formed)” value [7] is reported as “could not detect any resorufin above background”.
